{
  "source": "paper PMC5573156",
  "about": "(Developmental cell, 2017)",
  "molecules": {"B1": {"name": "Kip3FL (full-length Kip3, budding yeast kinesin-8) (natural protein, S. cerevisiae, UniProt P53086 1-805, looked up)", "chain": "MNVPETRQSSIVVAIRVRPFTSMEKTRLVNEASGAEANFPGLGDSSLILPMSNNSDSDIDIDAEEGSTRSKRNSLLRRKVIRPEGIRKIVDCVDDRMLIFDPADRNPLNKVSDQVLNSMRARATKATASSINNSNATNKFSSQRRRHGGEIKFVFDKLFDETSSQARVYKETTSPLLDSVLDGFNSTVFAYGATGCGKTYTVSGTPSQPGIIFLAMEELFNKITDLKDEKDFEISLSYLEIYNERIRDLLKPETPSKRLVIREDTQNHIKVANLSYHHPNTVEDVMDLVVQGNINRTTSPTEANEVSSRSHAVLQIHIMQTNKLVDLTSQHTFATLSIIDLAGSERAAATRNRGIRLHEGANINRSLLALGNCINALCLNDGSRSCHIPYRDSKLTRLLKFSLGGNCKTVMIVCISPSSSHYDETLNTLKYANRAKEIKTKIIRNQQSLSRHVGSYLKMITEQKRQIEELREREEKMISLKLTKYKLNKEKIQLAINECVNRVQQTYAGVETYQVAKTLKSLILCKRRFLQMVKLEVDNLILLFEREESTAAEMQPVISNCRMISGQLYNKIHELEMKFDETDTLSSVIHQVHSIDLNKLREMEDWDETYDLVYLESCLNQISELQRNEILVNSSIMTEKLMSDPGLNSRFKFLSKWLMNRTPNIESIIQDLVHIDEEFESFARTFIANPDSNFTNTNINIINTTAADLAVPAETLQRQNFSQKKVKWTSPDLSPSPMIEPQPELEPELHQDQDAIASEVDVSMQDTTFNEQGPSTPSAPTTAVPRRKMRSSLLTHQSLLATARK", "modifications": "TMR (HALO-TMR) on the HALO tag where labelled"}},
  "key": {"[1]": {"target": "microtubules polymerized from bovine brain tubulin (bovine) (UniProt Q6B856)", "sequence (Q6B856 whole entry, looked up)": "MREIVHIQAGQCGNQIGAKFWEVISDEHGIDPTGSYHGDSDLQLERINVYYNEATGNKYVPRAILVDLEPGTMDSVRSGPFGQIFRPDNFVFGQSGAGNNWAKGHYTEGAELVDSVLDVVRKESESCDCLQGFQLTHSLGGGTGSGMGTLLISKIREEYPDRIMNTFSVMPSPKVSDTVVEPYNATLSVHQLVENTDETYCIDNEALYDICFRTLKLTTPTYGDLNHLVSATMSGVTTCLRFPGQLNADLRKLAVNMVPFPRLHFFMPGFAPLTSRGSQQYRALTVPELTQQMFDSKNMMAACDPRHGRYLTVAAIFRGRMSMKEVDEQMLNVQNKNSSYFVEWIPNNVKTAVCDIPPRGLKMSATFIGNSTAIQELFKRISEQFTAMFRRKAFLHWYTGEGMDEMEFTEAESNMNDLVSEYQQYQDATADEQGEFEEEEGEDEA", "test": "single-molecule TIRF motility assay"}, "[2]": {"target": "bovine brain tubulin, unpolymerized (soluble αβ-tubulin dimer) (bovine) (UniProt Q6B856)"}, "[3]": {"target": "Kip3_(448) (S. cerevisiae) (UniProt P53086)", "test": "BLI"}, "[4]": {"target": "Kip3_(438)-L11^KHC (S. cerevisiae) (UniProt P53086)", "test": "BLI"}, "[5]": {"target": "Kip3_(438) (S. cerevisiae) (UniProt P53086)", "test": "BLI"}, "[6]": {"target": "GTPγS-stabilized Tub1^D118A yeast microtubules (S. cerevisiae, UniProt P09733 1-447; P02557 1-457, D118A)", "sequence (P09733 whole entry D118A, chain 1 of 2)": "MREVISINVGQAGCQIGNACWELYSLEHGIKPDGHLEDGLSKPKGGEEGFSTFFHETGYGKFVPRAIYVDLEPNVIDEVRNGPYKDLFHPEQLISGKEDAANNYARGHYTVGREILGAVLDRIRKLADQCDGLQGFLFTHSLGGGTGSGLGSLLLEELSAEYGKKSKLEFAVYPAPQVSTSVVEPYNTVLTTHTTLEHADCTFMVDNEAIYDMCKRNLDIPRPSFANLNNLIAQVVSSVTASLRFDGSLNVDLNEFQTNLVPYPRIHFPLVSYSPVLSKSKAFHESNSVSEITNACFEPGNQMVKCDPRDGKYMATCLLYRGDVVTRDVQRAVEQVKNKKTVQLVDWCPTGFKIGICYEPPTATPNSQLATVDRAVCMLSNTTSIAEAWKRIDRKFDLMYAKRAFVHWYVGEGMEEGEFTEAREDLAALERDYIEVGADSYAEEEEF", "sequence (P02557 whole entry, stated change not applied, chain 2 of 2)": "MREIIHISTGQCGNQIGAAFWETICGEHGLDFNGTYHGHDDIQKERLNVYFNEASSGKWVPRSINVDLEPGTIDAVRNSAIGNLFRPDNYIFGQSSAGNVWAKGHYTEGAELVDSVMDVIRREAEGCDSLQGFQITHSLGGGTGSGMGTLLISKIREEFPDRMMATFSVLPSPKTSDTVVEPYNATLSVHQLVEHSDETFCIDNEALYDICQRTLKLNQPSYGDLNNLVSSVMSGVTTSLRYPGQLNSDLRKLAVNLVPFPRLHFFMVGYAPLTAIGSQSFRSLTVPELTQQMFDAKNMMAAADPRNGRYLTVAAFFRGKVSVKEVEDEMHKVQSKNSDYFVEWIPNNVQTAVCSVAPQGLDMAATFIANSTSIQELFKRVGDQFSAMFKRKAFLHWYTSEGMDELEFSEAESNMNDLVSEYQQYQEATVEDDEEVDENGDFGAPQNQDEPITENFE", "test": "TIRF fluorescence intensity on immobilised microtubules"}, "[7]": {"target": "microtubules polymerized from bovine brain tubulin (bovine) (UniProt Q6B856)", "test": "single-molecule TIRF motility assay", "remark": "listed apart in the source"}, "[8]": {"target": "microtubules polymerized from bovine brain tubulin (bovine) (UniProt Q6B856)", "test": "single-molecule TIRF motility assay", "remark": "listed apart in the source"}},
  "note": "Like-named read-outs stand apart in the source and are kept apart here.",
  "data": [
    {"molecule": "KHC560 with Kip3 Loop11 and Loop2 (from UniProt P33176 1-560)", "values": [
      {"measurement": "plus-end residence time", "setting": "[1]", "result": 52.1, "unit": "s"}
    ]},
    {"molecule": "Kip3FL-L2^KHC (from UniProt P53086 1-805)", "values": [
      {"measurement": "plus-end dwell time", "setting": "[1]", "result": 9.3, "unit": "s"}
    ]},
    {"molecule": "KHC560-L11^Kip3 (from UniProt P33176 1-560)", "values": [
      {"measurement": "steady-state ATPase: decrease of the KM for tubulin against kinesin-1", "setting": "[2]", "result": 9.4, "unit": "fold"}
    ]},
    {"molecule": "bovine brain tubulin, unpolymerized (soluble αβ-tubulin dimer) (from UniProt Q6B856 1-445) (complex)", "values": [
      {"measurement": "residence time (koff^-1) with ADP", "setting": "[3]", "result": 35.7, "unit": "s"},
      {"measurement": "fold change in tubulin binding affinity, Kip3 438 over Kip3 438-L11KHC", "setting": "[4]", "result": 7, "unit": "fold"},
      {"measurement": "lifetime of the complex", "setting": "[5]", "result": 48, "unit": "s"}
    ]},
    {"molecule": "B1", "values": [
      {"measurement": "binding result", "setting": "[6]", "result": "binds"},
      {"measurement": "plus-end dwell time", "setting": "[7]", "result": 38.2, "unit": "s"},
      {"measurement": "plus-end dwell time", "setting": "[8]", "result": 52.9, "unit": "s"}
    ]}
  ]
}
